# *1 amine or outer side, *2 acyl side, *3 side chain or, on linkers, in order; H or OH if unused. Where no end group is shown, it is not given here. Side-chain parts run from the residue outwards. [ ]: non-standard residue; d: D form. The star is where a group is joined. C20 diacid = O=C(O)CCCCCCCCCCCCCCCCCCC(=O)*; γGlu = O=C(O)[C@H](CCC(=O)[*:2])N[*:1]; αMeL = CC(C)C[C@](C)(N)C(=O)O; AEEA = NCCOCCOCC(=O)O; Aib = CC(C)(N)C(=O)O; Ahx = NCCCCCC(=O)O
# T1: human corticotropin-releasing hormone receptor 1 (CRHR1) (human, UniProt P34998 24-415)
# T1 sequence (looked up): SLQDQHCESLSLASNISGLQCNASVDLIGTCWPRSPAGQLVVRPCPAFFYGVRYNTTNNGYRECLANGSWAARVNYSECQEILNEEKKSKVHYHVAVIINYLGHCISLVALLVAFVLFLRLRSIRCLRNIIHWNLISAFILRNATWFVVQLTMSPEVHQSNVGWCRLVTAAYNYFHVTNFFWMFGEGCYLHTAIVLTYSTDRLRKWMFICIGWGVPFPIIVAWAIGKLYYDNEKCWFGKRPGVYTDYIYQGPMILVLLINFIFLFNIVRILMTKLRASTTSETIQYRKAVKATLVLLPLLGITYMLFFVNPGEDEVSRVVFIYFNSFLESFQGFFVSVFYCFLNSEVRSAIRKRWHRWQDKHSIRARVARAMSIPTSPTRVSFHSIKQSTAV
# B1: polypeptide comprising SEQ ID NO:41 (peptide)
# peptide: Ac-IVTS[αMeL]D[dV]PT[Aib][αMeL]LQIKLEQERAEKARQQAK([AEEA-AEEA-γGlu-C20 diacid])ENTEILAQV-NH2
# SMILES: CC[C@H](C)[C@H](NC(C)=O)C(=O)N[C@H](C(=O)N[C@H](C(=O)N[C@@H](CO)C(=O)N[C@@](C)(CC(C)C)C(=O)N[C@@H](CC(=O)O)C(=O)N[C@@H](C(=O)N1CCC[C@H]1C(=O)N[C@H](C(=O)NC(C)(C)C(=O)N[C@@](C)(CC(C)C)C(=O)N[C@@H](CC(C)C)C(=O)N[C@@H](CCC(N)=O)C(=O)N[C@H](C(=O)N[C@@H](CCCCN)C(=O)N[C@@H](CC(C)C)C(=O)N[C@@H](CCC(=O)O)C(=O)N[C@@H](CCC(N)=O)C(=O)N[C@@H](CCC(=O)O)C(=O)N[C@@H](CCCNC(=N)N)C(=O)N[C@@H](C)C(=O)N[C@@H](CCC(=O)O)C(=O)N[C@@H](CCCCN)C(=O)N[C@@H](C)C(=O)N[C@@H](CCCNC(=N)N)C(=O)N[C@@H](CCC(N)=O)C(=O)N[C@@H](CCC(N)=O)C(=O)N[C@@H](C)C(=O)N[C@@H](CCCCNC(=O)COCCOCCNC(=O)COCCOCCNC(=O)CC[C@H](NC(=O)CCCCCCCCCCCCCCCCCCC(=O)O)C(=O)O)C(=O)N[C@@H](CCC(=O)O)C(=O)N[C@@H](CC(N)=O)C(=O)N[C@H](C(=O)N[C@@H](CCC(=O)O)C(=O)N[C@H](C(=O)N[C@@H](CC(C)C)C(=O)N[C@@H](C)C(=O)N[C@@H](CCC(N)=O)C(=O)N[C@H](C(N)=O)C(C)C)[C@@H](C)CC)[C@@H](C)O)[C@@H](C)CC)[C@@H](C)O)C(C)C)[C@@H](C)O)C(C)C
# B2: polypeptide comprising SEQ ID NO:42 (peptide)
# peptide: Ac-IVTS[αMeL]D[dV]PI[Aib][αMeL]LQIKLEQERAEKARQQAK([AEEA-AEEA-γGlu-C20 diacid])ENTEILAQV-NH2
# SMILES: CC[C@H](C)[C@H](NC(C)=O)C(=O)N[C@H](C(=O)N[C@H](C(=O)N[C@@H](CO)C(=O)N[C@@](C)(CC(C)C)C(=O)N[C@@H](CC(=O)O)C(=O)N[C@@H](C(=O)N1CCC[C@H]1C(=O)N[C@H](C(=O)NC(C)(C)C(=O)N[C@@](C)(CC(C)C)C(=O)N[C@@H](CC(C)C)C(=O)N[C@@H](CCC(N)=O)C(=O)N[C@H](C(=O)N[C@@H](CCCCN)C(=O)N[C@@H](CC(C)C)C(=O)N[C@@H](CCC(=O)O)C(=O)N[C@@H](CCC(N)=O)C(=O)N[C@@H](CCC(=O)O)C(=O)N[C@@H](CCCNC(=N)N)C(=O)N[C@@H](C)C(=O)N[C@@H](CCC(=O)O)C(=O)N[C@@H](CCCCN)C(=O)N[C@@H](C)C(=O)N[C@@H](CCCNC(=N)N)C(=O)N[C@@H](CCC(N)=O)C(=O)N[C@@H](CCC(N)=O)C(=O)N[C@@H](C)C(=O)N[C@@H](CCCCNC(=O)COCCOCCNC(=O)COCCOCCNC(=O)CC[C@H](NC(=O)CCCCCCCCCCCCCCCCCCC(=O)O)C(=O)O)C(=O)N[C@@H](CCC(=O)O)C(=O)N[C@@H](CC(N)=O)C(=O)N[C@H](C(=O)N[C@@H](CCC(=O)O)C(=O)N[C@H](C(=O)N[C@@H](CC(C)C)C(=O)N[C@@H](C)C(=O)N[C@@H](CCC(N)=O)C(=O)N[C@H](C(N)=O)C(C)C)[C@@H](C)CC)[C@@H](C)O)[C@@H](C)CC)[C@@H](C)CC)C(C)C)[C@@H](C)O)C(C)C
# Biological target: T1, human corticotropin-releasing hormone …
# Assay: cell-based or functional assay
row,hCRHR1 cAMP EC50,Binder
1,3.7 µM,B1
2,> 10 µM,Ac-IVTS[αMeL]D[dV]PTG[αMeL]LQIKLEQERAEKARQQAKENTEILAQV-NH2 (not fully specified (residue 29)) [polypeptide comprising SEQ ID NO:43]
3,1.1 µM,Ac-IVTS[αMeL]D[dV]PTG[αMeL]LQIKLEQERAEKARQQAKENTEILAQV-NH2 (not fully specified (residue 29)) [polypeptide comprising SEQ ID NO:38]
4,1.1 µM,Ac-IVTS[αMeL]D[dV]PTG[αMeL]LQIKLEQERAEKARQQAKENTEILAQV-NH2 (not fully specified (residue 29)) [polypeptide comprising SEQ ID NO:33]
5,> 10 µM,Ac-IVTS[αMeL]D[dV]PTG[αMeL]LQIKLEQERAEKARQQAKENTEILAQV-NH2 (not fully specified (residue 29)) [polypeptide comprising SEQ ID NO:40]
6,> 10 µM,Ac-IVTS[αMeL]D[dV]PTG[αMeL]LQIKLEQERAEKARQQAKENTEILAQV-NH2 (not fully specified (residue 29)) [polypeptide comprising SEQ ID NO:32]
7,1.7 µM,Ac-IVTS[αMeL]D[dV]PTG[αMeL]LQIKLEQERAEKARQQAKENTEILAQV-NH2 (not fully specified (residue 29)) [polypeptide comprising SEQ ID NO:37]
8,1.8 µM,Ac-IVTS[αMeL]D[dV]PTG[αMeL]LQIKLEQERAEKARQQAKENTEILAQV-NH2 (not fully specified (residue 29)) [polypeptide comprising SEQ ID NO:36]
9,> 10 µM,Ac-IVTS[αMeL]D[dV]PTG[αMeL]LQIKLEQERAEKARQQAKENTEILAQV-NH2 (not fully specified (residue 29)) [polypeptide comprising SEQ ID NO:44]
10,2.3 µM,B2
11,3.7 µM,Ac-IVTS[αMeL]D[dV]PTG[αMeL]LQIKLEQERAEKARQQAKENTEILAQV-NH2 (not fully specified (residue 29)) [polypeptide comprising SEQ ID NO:39]
12,> 10 µM,Ac-GSPSIVTS[αMeL]DVPT[Aib][αMeL]LQKILEQERAEKARQQAK([Ahx-AEEA-γGlu-C20 diacid])EAAEILAQV-NH2 [polypeptide comprising SEQ ID NO:4]
13,> 10 µM,Ac-IVTS[αMeL]D[dV]PTG[αMeL]LQIKLEQERAEKARQQAKENTEILAQV-NH2 (not fully specified (residue 29)) [polypeptide comprising SEQ ID NO:34]
14,3 µM,Ac-IVTS[αMeL]D[dV]PTG[αMeL]LQIKLEQERAEKARQQAKENTEILAQV-NH2 (not fully specified (residue 29)) [polypeptide comprising SEQ ID NO:35]
15,3.7 µM,[γGlu]GPSIVTS[αMeL]D[dV]PI[Aib][αMeL]LQIKLEQERAEKARQQAK([AEEA-AEEA-γGlu-C20 diacid])ENTEILAQV-NH2 [polypeptide comprising SEQ ID NO:45]
